Test results taken from patent US20190276561A1 (FUJIFILM WAKO PURE CHEMICAL, published 2019).

Experiments:
C8 peptide (PRGYPGQV) = molecular target: T1, C8 peptide (PRGYPGQV); experiment: affinity chromatography on immobilised C8 peptide, eluted with free C8
T1 construct: Antigen molecule of the P20.1 antibody
T1 peptide: PRGYPGQV

[1] = molecular target: T2, SORLA (neuroral sorting receptor) Vps10p domain (Homo sapiens (Human), UniProt Q92673 86-753); experiment: peak shift in gel filtration chromatography
T2 construct: also called SORLA Vps10p domain
T2 sequence: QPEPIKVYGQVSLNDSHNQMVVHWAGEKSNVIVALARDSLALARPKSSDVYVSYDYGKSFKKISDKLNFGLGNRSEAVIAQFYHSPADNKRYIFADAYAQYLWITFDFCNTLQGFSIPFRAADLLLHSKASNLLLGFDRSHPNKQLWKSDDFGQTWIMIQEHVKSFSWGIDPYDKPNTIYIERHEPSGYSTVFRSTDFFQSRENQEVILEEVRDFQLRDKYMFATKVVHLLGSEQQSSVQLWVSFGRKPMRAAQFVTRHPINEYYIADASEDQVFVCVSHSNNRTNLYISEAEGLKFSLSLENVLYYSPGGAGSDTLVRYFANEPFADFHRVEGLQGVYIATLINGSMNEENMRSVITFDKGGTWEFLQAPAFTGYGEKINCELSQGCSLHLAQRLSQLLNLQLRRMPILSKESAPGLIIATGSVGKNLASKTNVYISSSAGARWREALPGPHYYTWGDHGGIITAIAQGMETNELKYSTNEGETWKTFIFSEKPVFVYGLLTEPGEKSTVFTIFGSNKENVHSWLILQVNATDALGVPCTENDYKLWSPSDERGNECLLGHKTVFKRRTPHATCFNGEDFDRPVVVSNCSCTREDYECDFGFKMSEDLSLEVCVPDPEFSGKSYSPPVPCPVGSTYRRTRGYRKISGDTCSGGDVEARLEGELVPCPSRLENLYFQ

Integrin α6β1 = molecular target: T3, Integrin α6β1 (Homo sapiens (Human), UniProt P23229 24-680; P05556 21-465); experiment: peak shift in gel filtration chromatography
T3 construct: Antigen of the TS2/16 and SG/19 antibodies
T3 sequence (P23229 other isoform, or with tags, fused parts or gaps limits assumed, chain 1 of 2): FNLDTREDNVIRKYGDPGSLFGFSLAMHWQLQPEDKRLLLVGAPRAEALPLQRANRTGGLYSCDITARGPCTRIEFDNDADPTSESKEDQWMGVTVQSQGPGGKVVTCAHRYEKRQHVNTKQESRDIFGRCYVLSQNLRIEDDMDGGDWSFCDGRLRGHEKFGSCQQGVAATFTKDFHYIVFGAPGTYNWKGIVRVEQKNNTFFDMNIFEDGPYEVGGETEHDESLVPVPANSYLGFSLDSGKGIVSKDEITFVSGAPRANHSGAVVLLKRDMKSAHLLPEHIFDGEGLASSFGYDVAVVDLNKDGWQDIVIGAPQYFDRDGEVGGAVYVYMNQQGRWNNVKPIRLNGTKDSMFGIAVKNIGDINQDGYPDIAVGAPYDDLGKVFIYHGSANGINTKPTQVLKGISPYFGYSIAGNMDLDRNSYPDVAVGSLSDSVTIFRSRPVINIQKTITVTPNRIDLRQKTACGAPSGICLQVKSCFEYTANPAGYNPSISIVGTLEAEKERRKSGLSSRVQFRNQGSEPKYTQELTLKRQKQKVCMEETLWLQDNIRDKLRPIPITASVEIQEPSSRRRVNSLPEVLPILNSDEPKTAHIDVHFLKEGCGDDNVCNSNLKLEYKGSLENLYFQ
T3 sequence (P05556 other isoform, or with tags, fused parts or gaps limits assumed, chain 2 of 2): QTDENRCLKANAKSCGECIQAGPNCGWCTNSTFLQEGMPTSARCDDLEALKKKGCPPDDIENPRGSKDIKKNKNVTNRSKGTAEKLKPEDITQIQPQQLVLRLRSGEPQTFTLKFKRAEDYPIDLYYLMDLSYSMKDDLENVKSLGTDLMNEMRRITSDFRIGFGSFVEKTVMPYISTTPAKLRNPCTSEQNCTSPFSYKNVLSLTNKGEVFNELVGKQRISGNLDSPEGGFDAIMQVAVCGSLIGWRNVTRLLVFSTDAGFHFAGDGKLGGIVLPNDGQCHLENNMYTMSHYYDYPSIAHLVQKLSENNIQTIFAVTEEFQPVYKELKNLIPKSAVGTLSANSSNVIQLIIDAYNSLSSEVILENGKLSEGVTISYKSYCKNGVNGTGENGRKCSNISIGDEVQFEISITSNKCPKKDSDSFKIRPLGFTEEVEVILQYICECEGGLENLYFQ

[2] = molecular target: T4, hepatocyte growth factor (HGF) (Homo sapiens (Human), UniProt P14210 388-728); experiment: peak shift in gel filtration chromatography
T4 construct: Antigen of the t8E4 and t1E4 antibodies
T4 sequence (P14210 other isoform, or with tags, fused parts or gaps limits assumed): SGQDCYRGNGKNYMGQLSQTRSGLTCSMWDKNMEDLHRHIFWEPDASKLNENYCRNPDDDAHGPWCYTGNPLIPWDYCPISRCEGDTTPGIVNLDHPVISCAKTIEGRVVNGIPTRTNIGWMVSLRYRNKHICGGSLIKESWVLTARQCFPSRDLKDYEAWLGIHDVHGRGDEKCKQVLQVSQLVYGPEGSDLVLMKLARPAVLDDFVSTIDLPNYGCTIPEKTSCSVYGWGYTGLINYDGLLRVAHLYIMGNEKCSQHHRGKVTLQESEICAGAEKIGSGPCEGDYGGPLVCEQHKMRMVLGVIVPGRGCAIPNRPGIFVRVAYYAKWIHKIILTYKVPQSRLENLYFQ

[3] = molecular target: T4, hepatocyte growth factor (HGF); experiment: X-ray crystal structure of the complex

B1: P20.1 antibody-Fv-clasp (v1) obtained in the E. coli expression system (Comparative Example 1) (other)
VH: MQIQLVQSGPEVQKPGETVRISCKASGYTFTTAGMQWVQKMPGKSLKWIGWINTRSGVPKYAEDFKGRFAFSLETSASIAYLHINNLKNEDTATYFCAREGPGFVYWGQGTLVTVSSGSDYEFLKSWTVEDLQKRLLALDPMMEQEIEEIRQKCQSKRQPILDAIEAK
VL: MGQTVVTQESALTTSPGETVTLTCRSSTGAVTTSNYANWVQEKPDHLFTGLIVGTNNRVPGVPPRFSGSLIEDKAALTITGAQTEDEAIYFCALWYSNHWVFGGGTKLTVLGGSDYEFLKSWTVEDLQKRLLALDPMCEQEIEEIRQKYQSKRQPILDAIEAK
notes: Fv-clasp fragment antibody: heterodimer of VH-SARAH and VL-SARAH linked by a disulfide between Cys35 and Cys24 of the two SARAH domains; also called Fv-clasp (v1) against P20.1 antibody; Fv-clasp (v1) of P20.1 antibody
binding result (C8 peptide (PRGYPGQV)): binds

B2: 93201 antibody-Fv-clasp (v2) (other)
VH: MEVQLQQSGAELVKPGASVKLSCTASGFNIQDTYIHWVKQRPEQGLDWIGRIDPANGNTKYDPNFQGKATITADTSSNTAYLQLSSLASEDTAVYYCATSNYYSRGAMDYWGQGTSVTVCSGSDYEFLKSWTVEDLQKRLLALDPMMEQEIEEIRQKYQSKRQPILDAIEAK
VL: MDIVLTQSPASLAVSLGQRATISCRASESVEYYGTNLMHWYQQKPGQPPKLLIYVASTVKSGVPARFSGSGSGTDFSLNIHPVEEDDIAMYFCQQSRKVPWTFGGGTRLEIKRGSDYEFLKSWTVEDLQKRLLALDPMMEQEIEEIRQKYQCKRQPILDAIEAK
binding result [1]: binds

B3: TS2/16 antibody-Fv-clasp (v2) (other)
VH: MDVKLVESGGGLVKPGGSLKLSCAASGFTFSSYTMSWVRQTPEKRLEWVATISSGGSYTYYPDSVKGRFTISRDKAKNTLYLQMGSLKSEDTAMYYCTRIGYDEDYAMDHWGQGTSVTVCSGSDYEFLKSWTVEDLQKRLLALDPMMEQEIEEIRQKYQSKRQPILDAIEAK
VL: MQIVVTQRPTTMAASPGDKIIITCSVSSIISSNYLHWYSQKPGFSPKLLIYRTSNLASGVPPRFSGSGSGTSYSLTIGTMEAEDVATYYCQQGSDIPLTFGDGTKLDLKRGSDYEFLKSWTVEDLQKRLLALDPMMEQEIEEIRQKYQCKRQPILDAIEAK
notes: also called Fv-clasp (v2) against TS2/16 antibody
binding result (Integrin α6β1): binds

B4: SG/19 antibody-Fv-clasp (v2) (other)
VH: MQVHLQQSGAELMKPGASVKISCKATGYTFTSYWIEWVKQRPGHGLEWLGEILPGSGYIHYNEKFKGKATFTTDTSSNTAYMQLSSLTSEDSAVYYCSRALALYAMDYWGQGTSVTVCSGSDYEFLKSWTVEDLQKRLLALDPMMEQEIEEIRQKYQSKRQPILDAIEAK
VL: MDIVMTQATPSIPVTPGESVSISCRSNKSLLHSNGNTYLYWFLQRPGQSPRLLIFRMSNLASGVPDRFSGSGSGTAFTLRISRVEAADVGIYFCLQHLEYPFTFGAGTKLELKRGSDYEFLKSWTVEDLQKRLLALDPMMEQEIEEIRQKYQCKRQPILDAIEAK
notes: also called Fv-clasp (v2) against SG/19 antibody
binding result (Integrin α6β1): binds

B5: t8E4 antibody-Fv-clasp (v2) (other)
VH: MKQVQLKESGPDLVQPSQTLSLTCTVSGFSLTGYGVHWVRQPPGKGLEWVGTLGWNDKKYYNSALKSRLSISRDTSKNQVFLKLSSLETEDTAMYYCTRDGGLLFAYYAMDYWGQGTSVTVCSGSDYEFLKSWTVEDLQKRLLALDPMMEQEIEEIRQKYQSKRQPILDAIEAK
VL: MDIQMTQTTSSLSASLGDRVTFSCRASQDISNYLNWYQQKPDGTVKLLIFYTSRLHSGVPSRFSGSGSGTDYSLTIANLEQEDFATYFCQQDSKHPFTFGSGTKLEIKRGSDYEFLKSWTVEDLQKRLLALDPMMEQEIEEIRQKYQCKRQPILDAIEAK
notes: also called Fv-clasp (v2) against t8E4 antibody
binding result [2]: binds

B6: t1E4 antibody-Fv-clasp (v2) (other)
VH: MKQGQLQQSGPELVKPGASVKISCKASGYVFSSSWMNWVKQRPGKGLEWIGRIYPGYGDTNYNGKFKGKATLTADKSSSTAYMQLSSLTSEDSAVYFCVREELGPYWYFDVWGAGTTVTVCSGSDYEFLKSWTVEDLQKRLLALDPMMEQEIEEIRQKYQSKRQPILDAIEAK
VL: MDVVMTQTPLSLPVSLGDQASISCRSSQSLVHSNGNTYLHWYLQKPGQSPKLLIYKVSNRFSGVPDRFSGSGSGTDFTLKISRVEAEDLGVYFCSQSTHVPYTFGSGTKLEIKRGSDYEFLKSWTVEDLQKRLLALDPMMEQEIEEIRQKYQCKRQPILDAIEAK
notes: also called Fv-clasp (v2) against t1E4 antibody
binding result [3]: binds
